The results in this text go back to patent US20220213181A1 (Novartis, published 2022).

Where a chain is given by its changes, count along the chain named.

B1: NEG310 (antibody, human IgG1, kappa, V domains shown)
VH: QVQLVQSGAEVKKPGASVKVSCKASGYTFTSYTMHWVRQAPGQGLEWMGYINPSSGYTKYNQKFQGRVTMTADKSTSTAYMELSSLRSEDTAVYYCAEGWLLLAMDYWGQGTLVTVSS
VL: EAVVTQSPATLSLSPGERATLSCRSSTGAVTTSNYAIWVQEKPGQAPRGLIGGTNNRAPGIPARFSGSLSGDDATLTISSLQPEDFAVYFCALWYSDHWVFGQGTKVEIKR
notes: humanized, hIgG1/kappa, parental antibody 17B1
B2: NEG315 (antibody, human IgG1, kappa, V domains shown)
VH: QVQLVQSGAEVKKPGASVKVSCKASGYTFTNYWITWVRQAPGQGLEWMGDFYPGGGNTNYNAKLQGRVTLTVDTSTSTAYMELRSLRSDDTAVYYCARSPPQVAPFDYWGQGTLVTVSS
VL: DIQMTQSPSSLSASVGDRVTITCQASEYIYNWLGWYQQKPGKAPKLLISGASGLETGVPSRFSGSGSGKDYTFTISSLQPEDIATYYCQQYWSTPWTFGQGTKLEIKR
notes: humanized, hIgG1/kappa, parental antibody 37P1
B3: NEG313 (antibody, human IgG1, kappa, V domains shown)
VH: B2 VH with T30N, N57S
VL: B2 VL with E27D, N31H
notes: as for B2
B4: NEG318 (antibody, human IgG1, kappa, V domains shown)
VH: B2 VH with N31S, Y32F, F51I, G56A, N57T, A62E, A104G
VL: B2 VL with E27D, N31H, G34A, G53S, T94I
notes: humanized, hIgG1/kappa, parental antibody 14P18
B5: NEG319 (antibody, human IgG1, kappa, V domains shown)
VH: B2 VH with N31S, Y32F, F51I, G56A, A62E, A104G
VL: B2 VL with Y30I, G34A, S52T, T94I
notes: as for B4
B6: NEG276 (antibody, human IgG1, kappa)
heavy: not shown
light: EIVMTQSPATLSVSPGERATLSCKASQDIGSNLNWLQQKPGQAPRRLIYAVSNRGPGIPARFSGSRSGSEYTLTISSLQSEDFAVYYCLQYASSPWTFGQGTKVEIKRTVAAPSVFIFPPSDEQLKSGTASVVCLLNNFYPREAKVQWKVDNALQSGNSQESVTEQDSKDSTYSLSSTLTLSKADYEKHKVYACEVTHQGLSSPVTKSFNRGEC
notes: humanized, hIgG1/kappa, parental antibody 19C16
B7: NEG278 (antibody, human IgG1, kappa, V domains shown)
VH: QVQLVQSGAEVKKPGASVKVSCKASAYTFTSSWMQWVRQAPGQGLEWMGEIDPSDNYANYNQKFQGRVTLTVDTSTSTAYMELSSLRSEDTAVYYCASGSYFSNFFDYWGQGTLVTVSS
VL: EIVMTQSPATLSVSPGERATLSCKASQDIGSNLNWLQQKPGQAPRRLIYAASVREPGIPARFSGSRSGSEYTLTISSLQSEDFAVYYCLQYASSPWTFGQGTKVEIKR
notes: as for B6
B8: NEG276-LALA (antibody, human IgG1, kappa, L234A L235A)
heavy: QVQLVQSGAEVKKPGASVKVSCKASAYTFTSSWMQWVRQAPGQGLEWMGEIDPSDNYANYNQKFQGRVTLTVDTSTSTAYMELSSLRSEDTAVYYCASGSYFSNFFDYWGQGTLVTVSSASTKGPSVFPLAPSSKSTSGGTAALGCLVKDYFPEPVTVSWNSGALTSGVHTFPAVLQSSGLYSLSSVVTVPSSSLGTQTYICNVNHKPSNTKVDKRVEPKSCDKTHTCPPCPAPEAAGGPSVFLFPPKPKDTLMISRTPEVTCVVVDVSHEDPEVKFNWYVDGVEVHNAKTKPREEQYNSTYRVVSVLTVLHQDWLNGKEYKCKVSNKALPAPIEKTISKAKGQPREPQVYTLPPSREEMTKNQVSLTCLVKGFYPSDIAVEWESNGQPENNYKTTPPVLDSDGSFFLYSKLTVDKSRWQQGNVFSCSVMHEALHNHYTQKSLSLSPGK
light: B6 light

One assay concerns the target T1, Human ANGPTL4(26-406)-FLAG-His6-Avi (human, UniProt Q9BY76 24-406, biotin on the C-terminal Avi tag (BirA) where the protein is immobilised).
T1 sequence: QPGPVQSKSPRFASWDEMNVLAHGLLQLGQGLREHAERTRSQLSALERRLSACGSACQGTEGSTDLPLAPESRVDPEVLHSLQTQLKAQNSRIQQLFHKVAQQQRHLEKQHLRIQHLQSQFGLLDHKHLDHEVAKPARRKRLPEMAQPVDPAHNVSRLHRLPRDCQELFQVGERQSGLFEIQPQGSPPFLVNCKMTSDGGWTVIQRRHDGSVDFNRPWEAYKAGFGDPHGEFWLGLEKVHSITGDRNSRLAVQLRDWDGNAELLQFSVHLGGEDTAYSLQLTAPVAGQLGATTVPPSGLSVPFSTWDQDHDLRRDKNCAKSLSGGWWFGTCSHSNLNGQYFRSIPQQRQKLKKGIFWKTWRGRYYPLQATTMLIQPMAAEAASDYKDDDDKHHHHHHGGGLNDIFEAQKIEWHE
Description: cell-based or functional assay.
In the case of B1, the “EC50 of the antibody-mediated increase in lipoprotein lipase enzyme activity (reversal of LPL inhibition by ANGPTL4)” value amounted to 1.6 nM.

As to B2, the “EC50 of the antibody-mediated increase in lipoprotein lipase enzyme activity (reversal of LPL inhibition by ANGPTL4)” value worked out at 3 nM.

As to B3, the “EC50 of the antibody-mediated increase in lipoprotein lipase enzyme activity (reversal of LPL inhibition by ANGPTL4)” value was determined as 3 nM.

Regarding B4, the “EC50 of the antibody-mediated increase in lipoprotein lipase enzyme activity (reversal of LPL inhibition by ANGPTL4)” value was 1.4 nM.

As for B5, the “EC50 of the antibody-mediated increase in lipoprotein lipase enzyme activity (reversal of LPL inhibition by ANGPTL4)” value was 0.5 nM.

In the case of B6, the “EC50 of the antibody-mediated increase in lipoprotein lipase enzyme activity (reversal of LPL inhibition by ANGPTL4)” value was determined as 0.6 nM.

Take B7: the “EC50 of the antibody-mediated increase in lipoprotein lipase enzyme activity (reversal of LPL inhibition by ANGPTL4)” value came to 0.7 nM.

In the case of B8, the “EC50 of the antibody-mediated increase in lipoprotein lipase enzyme activity (reversal of LPL inhibition by ANGPTL4)” value came to 0.7 nM.

The next assay concerns the target T2, Human ANGPTL3(17-460)-FLAG-His-Avi (human, UniProt Q9Y5C1 17-460, biotin on the C-terminal Avi tag (BirA)).
T2 construct: also called full length human ANGPTL3; hANGPTL3
T2 sequence: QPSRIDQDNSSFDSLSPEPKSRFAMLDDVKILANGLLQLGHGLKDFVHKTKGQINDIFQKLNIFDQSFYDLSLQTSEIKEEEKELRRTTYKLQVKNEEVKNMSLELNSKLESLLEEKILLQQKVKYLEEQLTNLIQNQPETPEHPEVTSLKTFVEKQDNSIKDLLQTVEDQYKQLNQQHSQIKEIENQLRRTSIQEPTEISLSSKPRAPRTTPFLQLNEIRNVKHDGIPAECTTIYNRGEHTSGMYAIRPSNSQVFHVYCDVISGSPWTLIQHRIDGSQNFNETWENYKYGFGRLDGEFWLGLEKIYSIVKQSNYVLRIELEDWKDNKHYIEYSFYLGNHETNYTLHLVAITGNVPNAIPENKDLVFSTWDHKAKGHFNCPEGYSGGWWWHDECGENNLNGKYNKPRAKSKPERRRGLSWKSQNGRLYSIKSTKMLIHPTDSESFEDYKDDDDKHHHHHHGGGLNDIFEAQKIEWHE
Description: direct ELISA on MSD streptavidin plate, biotinylated antigen immobilized at 1 nM, antibody at 1 nM, Sulfo-tagged anti-human IgG detection. The method, then:
Direct ELISA assays were conducted to characterize antibody binding specificity of selected antibodies of the invention. The assay was performed as follows. A 384-well streptavidin-coated Meso Scale Discovery (MSD) plate was blocked by incubating the plate with 50 μL Blocking Buffer (PBS, pH 7.4, 5% w/v bovine serum albumin) per well at 22° C. for 1 hour with constant shaking (600 rpm). The blocked MSD plate was then washed 3 times with Wash Buffer (PBS, pH 7.4 and 0.05% v/v Tween-20) using a plate washer (BioTek). Following washing, biotinylated human ANGPTL4 proteins diluted in Assay Buffer (PBS, pH 7.4 without CaCl₂ or MgCl₂, 0.5% w/v fatty acid-free bovine serum albumin and 0.02% v/v Tween-20) were immobilized on the surface by incubation at 1 nM concentration (15 μL per well) at 22° C. for one hour: full length human ANGPTL4 (hANGPTL4), human ANGPTL4 coiled-coil domain (hANGPTL4-CCD) and full length human ANGPTL3 (hANGPTL3). The plate was then washed 3 times as described earlier. Antibody diluted to 1 nM concentration in Assay Buffer was then applied to the MSD plate (15 μL per well), and the plate was incubated for 1 hour at 22° C. with constant shaking (600 rpm). Bound antibodies were detected by adding 15 μL per well of a 1:500 dilution of Sulfo-tagged goat anti-human IgG. The plate was then incubated for one hour with constant shaking (600 rpm). The plate was washed 3 times, and then 15 μL/well of 1× MSD read buffer T was added and the plate was developed using a Sector Imager 6000 (Meso Scale Discovery). The data were transferred to Microsoft Excel for analysis and plotted using GraphPad Prism v6. […] An ANGPTL3-specific reference antibody was used as a positive control for the ANGPTL3 binding assay (FIG. 2).
On to B1, for which the binding result is “no binding (tested: 1 nM)”.

For B2, the binding result is reported as “no binding (tested: 1 nM)”.

In the case of B3, the binding result was “no binding (tested: 1 nM)”.

B4: the binding result is recorded as “no binding (tested: 1 nM)”.

On to B5, for which the binding result is “no binding (tested: 1 nM)”.

Consider B6, for which the binding result is “no binding (tested: 1 nM)”.

B7: the binding result is “no binding (tested: 1 nM)”.

A further assay deals with T1, Human ANGPTL4(26-406)-FLAG-His6-Avi. Description: SET (solution equilibrium titration), MSD detection, IgG. The method, then:
SET assays were performed as follows. In a 96-well polypropylene plate, a constant concentration of ANGPTL4 antibody (10 pM) was mixed with different concentrations of non-biotinylated human, cyno, mouse, or rat full-length ANPGLT4 protein, or human ANGPTL4 N-terminal domain protein (5-fold serial dilution ranging from 0.01 pM to 100 nM) in SET buffer (PBS, pH 7.4 without CaCl₂) or MgCl₂, 0.5% w/v bovine serum albumin (fatty acid free) and 0.02% v/v Tween-20). The final reaction volume was 80 μL. The plate was sealed using an adhesive film and incubated at 22° C. for 14 hours with constant shaking (300 rpm). During the same period of time, a 384-well streptavidin-coated Meso Scale Discovery (MSD) plate was blocked by incubating the plate with 50 μL blocking buffer (PBS, pH 7.4, 5% w/v bovine serum albumin) per well at 4° C. The blocked MSD plate was washed 3 times with wash buffer (PBS, pH 7.4 and 0.05% v/v Tween-20) using a plate washer (BioTek). Biotinylated ANGPTL4 (full-length human, cyno, mouse, or rat ANGPTL4, or human ANGPTL4 N-terminal domain) protein (1 nM, 15 μL per well) was immobilized on the surface of the streptavidin-coated MSD plate by incubation at 22° C. for one hour with constant shaking (600 rpm). The plate was then washed 3 times as described earlier.
The equilibrium binding reactions (15 μL per well) were applied to the MSD plate with immobilized ANGPTL4 and incubated for 20 min at 22° C. The unbound material was removed by washing the plate 3 times with wash buffer, and the captured antibody was detected by adding 15 μL per well of a 1:500 dilution of Sulfo-tagged goat anti-human IgG (Meso Scale Discovery). The plate was then incubated for one hour with constant shaking (600 rpm). The plate was washed 3 times, and then 15 μL/well of 1× MSD read buffer T was added and the plate was developed using a Sector Imager 6000 (Meso Scale Discovery). The data were transferred to Microsoft Excel for analysis and plotted using GraphPad Prism v6. The KD values were determined by fitting the data to the following equation: […]
where Bₘₐₓ is the signal when no ANGPTL4 protein is present in solution, CAb is the constant concentration of ANGPTL4 antibody in solution, CAg is the concentration of ANGPTL4 in solution, and KD is the equilibrium dissociation constant.
Turning to B1, the affinity, expressed as Kd, was 0.021 nM.

As to B2, the Kd turned out to be 0.012 nM. Compared with the last molecule, the Kd is about 1.8-fold lower.

In turn, B3 gave a Kd of 0.009 nM. This Kd and that of the molecule before are within 1.5-fold of each other.

B4 returned a Kd of 0.009 nM.

In the case of B5, the Kd was 0.016 nM.

B6 had a Kd of 0.024 nM.

Regarding B7, binding was characterised by a dissociation constant (Kd) of 0.015 nM.

Consider B8, for which the affinity, expressed as Kd, was 0.008 nM.
